Laboratory results published in PMC6028955 (The Journal of Biological Chemistry, 2018).

Target: the molecule itself
Assay: AUC; sedimentation velocity (4 °C, 49,000 rpm) and sedimentation equilibrium; 25 mM Tris-HCl pH 7.6, 200 mM NaCl, 2 mM TCEP; SE fitted with a single species model

B1: human SSRP1 lacking the C-terminal ID regions and the HMG domain (residues 1–433) (domain or fragment, UniProt Q08945 1-433, looked up)
chain: MAETLEFNDVYQEVKGSMNDGRLRLSRQGIIFKNSKTGKVDNIQAGELTEGIWRRVALGHGLKLLTKNGHVYKYDGFRESEFEKLSDFFKTHYRLELMEKDLCVKGWNWGTVKFGGQLLSFDIGDQPVFEIPLSNVSQCTTGKNEVTLEFHQNDDAEVSLMEVRFYVPPTQEDGVDPVEAFAQNVLSKADVIQATGDAICIFRELQCLTPRGRYDIRIYPTFLHLHGKTFDYKIPYTTVLRLFLLPHKDQRQMFFVISLDPPIKQGQTRYHFLILLFSKDEDISLTLNMNEEEVEKRFEGRLTKNMSGSLYEMVSRVMKALVNRKITVPGNFQGHSGAQCITCSYKASSGLLYPLERGFIYVHKPPVHIRFDEISFVNFARGTTTTRSFDFEIETKQGTQYTFSSIEREEYGKLFDFVNAKKLNIKNRGLKEG
notes: structure-specific recognition protein-1 (SSRP1), human, residues 1–433 (PH1–PH4; lacks ID1, HMG, ID2); Homodimer by sedimentation equilibrium; predicted monomer mass 49.8 kDa; also called hSSRP1ΔCTD; hSSRP1; source: E. coli BL21 (DE3) Gold, purified (Ni-NTA, TEV treatment, anion-exchange, size-exclusion chromatography); not shown: His6, N-terminal, cleaved
stoichiometry N: 2
